The values below come from US6521594.

Starred links: 1 amine or outer side, 2 acyl side, 3 side chain; linkers in the order of their positions; H or OH if unused. Positions of bridges follow the written chain, without caps; N, C: chain ends. Non-standard residues stand in square brackets, D forms with d. Primed or numbered codes have the meaning given here. No end group written: not given here. Pmc′ = pentamethylenecysteine (from Boc-D/L-Pmc), O=C(C(N[*:1])C1(S[*:3])CCCCC1)[*:2]; Cys(β,β-pentamethylene) = O=C([C@@H](N[*:1])C1(S[*:3])CCCCC1)[*:2]; Tyr(Me)″ = COc1ccc(C[C@H](N[*:1])C(=O)[*:2])cc1; 2Nal = N[C@@H](Cc1ccc2ccccc2c1)C(=O)O; Pen = CC(C)(S)[C@H](N)C(=O)O

The target in test [1] is Platelet glycoprotein IIb/IIIa (human), P08514. As to the kind of experiment: ELISA. The note with it: modification not given.
Test [2] deals with Fibronectin receptor (human), P08648. As to the kind of experiment: ELISA. The settings on record: modification not given. Background: ELISA stands for enzyme-linked immunosorbent assay.
Chain of Fibronectin receptor (human), P08648 (P08648 42-1049, chain 1 of 2): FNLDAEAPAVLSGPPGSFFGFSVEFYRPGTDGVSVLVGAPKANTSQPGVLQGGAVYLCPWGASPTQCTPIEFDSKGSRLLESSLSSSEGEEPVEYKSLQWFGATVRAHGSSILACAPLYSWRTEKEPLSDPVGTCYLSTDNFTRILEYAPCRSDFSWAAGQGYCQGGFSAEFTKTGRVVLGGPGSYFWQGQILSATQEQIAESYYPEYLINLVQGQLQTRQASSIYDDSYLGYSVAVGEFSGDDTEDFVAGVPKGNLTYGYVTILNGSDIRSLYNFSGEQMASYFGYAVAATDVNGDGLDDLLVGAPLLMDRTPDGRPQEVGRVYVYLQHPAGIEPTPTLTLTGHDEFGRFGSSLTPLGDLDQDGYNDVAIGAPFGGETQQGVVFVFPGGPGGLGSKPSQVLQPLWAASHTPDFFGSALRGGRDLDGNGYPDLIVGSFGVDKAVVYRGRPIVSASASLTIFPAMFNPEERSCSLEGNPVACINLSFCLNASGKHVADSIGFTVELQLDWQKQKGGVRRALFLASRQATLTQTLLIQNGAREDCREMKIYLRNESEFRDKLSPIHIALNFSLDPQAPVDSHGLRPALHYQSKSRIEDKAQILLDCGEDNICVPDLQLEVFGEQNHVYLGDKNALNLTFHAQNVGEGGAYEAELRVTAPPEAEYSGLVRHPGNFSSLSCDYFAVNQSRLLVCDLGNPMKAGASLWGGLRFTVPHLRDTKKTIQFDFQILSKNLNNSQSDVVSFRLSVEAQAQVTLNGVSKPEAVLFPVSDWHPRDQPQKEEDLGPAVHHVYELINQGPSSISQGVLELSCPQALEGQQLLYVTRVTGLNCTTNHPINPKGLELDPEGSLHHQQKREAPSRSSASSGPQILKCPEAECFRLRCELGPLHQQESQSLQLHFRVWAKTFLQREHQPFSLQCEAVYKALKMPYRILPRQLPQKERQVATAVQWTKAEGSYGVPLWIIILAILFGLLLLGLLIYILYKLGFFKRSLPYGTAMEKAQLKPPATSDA
Chain of Fibronectin receptor (human), P08648 (chain, as listed by the source, chain 2 of 2): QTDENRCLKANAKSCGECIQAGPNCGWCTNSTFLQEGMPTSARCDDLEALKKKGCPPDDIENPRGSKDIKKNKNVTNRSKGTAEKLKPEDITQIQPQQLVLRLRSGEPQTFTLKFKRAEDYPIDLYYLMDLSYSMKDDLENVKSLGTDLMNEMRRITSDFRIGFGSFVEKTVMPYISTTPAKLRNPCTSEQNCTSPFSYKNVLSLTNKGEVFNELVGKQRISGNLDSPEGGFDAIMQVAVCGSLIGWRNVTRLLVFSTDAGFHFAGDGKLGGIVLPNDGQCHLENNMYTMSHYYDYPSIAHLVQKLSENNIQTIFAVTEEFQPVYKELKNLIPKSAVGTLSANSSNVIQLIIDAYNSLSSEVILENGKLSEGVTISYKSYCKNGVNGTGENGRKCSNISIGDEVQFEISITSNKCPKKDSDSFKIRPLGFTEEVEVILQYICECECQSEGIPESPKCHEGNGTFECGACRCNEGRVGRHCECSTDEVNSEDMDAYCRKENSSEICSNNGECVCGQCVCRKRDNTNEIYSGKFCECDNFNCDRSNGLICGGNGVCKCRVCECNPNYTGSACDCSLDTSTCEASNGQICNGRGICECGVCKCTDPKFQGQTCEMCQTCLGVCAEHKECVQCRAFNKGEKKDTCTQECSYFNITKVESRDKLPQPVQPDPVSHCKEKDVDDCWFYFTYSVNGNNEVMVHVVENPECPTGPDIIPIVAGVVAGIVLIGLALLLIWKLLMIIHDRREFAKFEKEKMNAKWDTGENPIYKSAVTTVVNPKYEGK
The target in test [3] is Platelet glycoprotein IIb/IIIa (human), P08514. The test is described as follows: cell-based or functional assay.
In test [4] the target is T1, Vitronectin receptor (human), P06756.
T1 chain 1: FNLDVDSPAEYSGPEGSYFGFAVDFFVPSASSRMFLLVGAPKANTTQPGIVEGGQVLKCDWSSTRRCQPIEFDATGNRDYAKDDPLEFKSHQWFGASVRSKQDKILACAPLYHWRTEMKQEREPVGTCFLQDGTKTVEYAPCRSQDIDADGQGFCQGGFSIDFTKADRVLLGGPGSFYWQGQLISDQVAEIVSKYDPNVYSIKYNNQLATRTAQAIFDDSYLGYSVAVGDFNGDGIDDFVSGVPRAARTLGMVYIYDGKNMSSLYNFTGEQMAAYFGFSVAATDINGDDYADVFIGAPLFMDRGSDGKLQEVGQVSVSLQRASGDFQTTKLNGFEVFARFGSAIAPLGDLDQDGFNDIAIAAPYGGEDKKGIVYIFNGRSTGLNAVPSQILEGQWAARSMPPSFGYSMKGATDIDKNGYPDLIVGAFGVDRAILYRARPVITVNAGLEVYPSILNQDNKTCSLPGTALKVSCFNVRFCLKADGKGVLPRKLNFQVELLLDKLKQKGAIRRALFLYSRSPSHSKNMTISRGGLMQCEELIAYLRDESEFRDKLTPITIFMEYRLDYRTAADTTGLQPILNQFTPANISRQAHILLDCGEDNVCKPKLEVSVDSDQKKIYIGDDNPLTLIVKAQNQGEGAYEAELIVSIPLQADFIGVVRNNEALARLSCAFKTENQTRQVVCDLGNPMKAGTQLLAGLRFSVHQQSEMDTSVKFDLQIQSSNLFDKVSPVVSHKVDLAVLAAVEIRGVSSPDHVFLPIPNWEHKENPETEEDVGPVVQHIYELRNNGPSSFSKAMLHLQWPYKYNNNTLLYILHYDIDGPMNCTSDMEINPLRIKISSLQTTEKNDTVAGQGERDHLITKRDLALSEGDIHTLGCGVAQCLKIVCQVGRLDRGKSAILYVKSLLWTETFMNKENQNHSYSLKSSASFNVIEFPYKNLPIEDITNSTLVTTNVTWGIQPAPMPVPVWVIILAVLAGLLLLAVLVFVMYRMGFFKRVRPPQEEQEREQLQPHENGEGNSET
T1 chain 2: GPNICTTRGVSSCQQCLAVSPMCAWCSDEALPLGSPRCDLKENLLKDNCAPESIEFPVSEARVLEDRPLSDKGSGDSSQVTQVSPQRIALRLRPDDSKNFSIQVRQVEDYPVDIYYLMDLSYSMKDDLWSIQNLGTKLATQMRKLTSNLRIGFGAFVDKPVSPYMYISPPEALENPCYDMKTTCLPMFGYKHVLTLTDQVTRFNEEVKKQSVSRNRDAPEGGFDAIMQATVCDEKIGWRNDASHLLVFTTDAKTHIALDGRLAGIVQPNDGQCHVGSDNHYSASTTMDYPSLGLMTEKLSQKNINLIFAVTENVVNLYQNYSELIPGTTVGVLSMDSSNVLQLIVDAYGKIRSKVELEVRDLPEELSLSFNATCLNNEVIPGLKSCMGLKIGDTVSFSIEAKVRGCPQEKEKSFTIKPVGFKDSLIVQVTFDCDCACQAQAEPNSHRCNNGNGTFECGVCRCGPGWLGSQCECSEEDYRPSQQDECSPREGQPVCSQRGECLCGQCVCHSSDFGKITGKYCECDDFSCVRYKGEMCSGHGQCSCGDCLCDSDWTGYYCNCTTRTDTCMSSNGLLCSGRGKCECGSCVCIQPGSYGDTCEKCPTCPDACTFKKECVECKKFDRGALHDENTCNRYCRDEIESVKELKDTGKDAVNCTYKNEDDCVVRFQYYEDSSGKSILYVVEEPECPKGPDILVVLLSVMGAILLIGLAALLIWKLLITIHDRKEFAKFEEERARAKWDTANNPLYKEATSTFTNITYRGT
The test is described as follows: competition, ELISA or liposome assay, vitronectin coated.

For test [5], the target named is Platelet glycoprotein IIb/IIIa (human), P08514. As to the kind of experiment: competition, ELISA or liposome assay.

B1: R(Pmc)GHRGD(2-Nal)RCR (peptide)
chain: R[Cys(β,β-pentamethylene)]GHRGD[2Nal]RCR
modifications: disulfide 2-10
One may read the IC50 as the point on the concentration scale where inhibition reaches its midpoint. A low value points to greater potency in that assay. Regarding B1, the IC50 in test [1] came out at 70 nM.

B2: R(Pmc)G(DY)RGD(Y-OMe)RCR (peptide)
chain: R[Cys(β,β-pentamethylene)]GXRGD[Tyr(Me)″]RCR
modifications: disulfide 2-10; not fully specified (residue 4); printed as R(Pmc)G(DY)RGD(Y-OMe)RCR
As for B2, the IC50 in test [2] was 10000 nM. In other words, the double-digit micromolar range.

B3: R(Pmc)SHRGD(Y-OMe)RCR (peptide)
chain: R[Pmc′]SHRGD[Y‑OMe]RCR
modifications: disulfide 2-10
With B3, the IC50 in test [2] was greater than 10000 nM.

B4: G(Pen)… (peptide)
peptide: G[Pen]IARGDWNCA
modifications: disulfide 2-10
Regarding B4, the IC50, ADP-Stimulated Aggregation in test [3] turned out to be 1200 nM. The IC50 in test [4] is 40 nM; in test [5], 10 nM.

B5: R(Pmc)RHRGD(Y-OMe)RCR (peptide)
chain: R[Pmc′]RHRGD[Y‑OMe]RCR
modifications: disulfide 2-10
B5 displayed an IC50 in test [1] of 70 nM.
